The values below come from patent US20200149021, “SYSTEM AND METHOD FOR GENOME EDITING” (INSTITUTE OF ZOOLOGY, CHINESE ACADEMY OF SCIENCES, published 2020).

This data set addresses T1, BsCpf1 (Butyrivibrio sp. NC30).
T1 chain: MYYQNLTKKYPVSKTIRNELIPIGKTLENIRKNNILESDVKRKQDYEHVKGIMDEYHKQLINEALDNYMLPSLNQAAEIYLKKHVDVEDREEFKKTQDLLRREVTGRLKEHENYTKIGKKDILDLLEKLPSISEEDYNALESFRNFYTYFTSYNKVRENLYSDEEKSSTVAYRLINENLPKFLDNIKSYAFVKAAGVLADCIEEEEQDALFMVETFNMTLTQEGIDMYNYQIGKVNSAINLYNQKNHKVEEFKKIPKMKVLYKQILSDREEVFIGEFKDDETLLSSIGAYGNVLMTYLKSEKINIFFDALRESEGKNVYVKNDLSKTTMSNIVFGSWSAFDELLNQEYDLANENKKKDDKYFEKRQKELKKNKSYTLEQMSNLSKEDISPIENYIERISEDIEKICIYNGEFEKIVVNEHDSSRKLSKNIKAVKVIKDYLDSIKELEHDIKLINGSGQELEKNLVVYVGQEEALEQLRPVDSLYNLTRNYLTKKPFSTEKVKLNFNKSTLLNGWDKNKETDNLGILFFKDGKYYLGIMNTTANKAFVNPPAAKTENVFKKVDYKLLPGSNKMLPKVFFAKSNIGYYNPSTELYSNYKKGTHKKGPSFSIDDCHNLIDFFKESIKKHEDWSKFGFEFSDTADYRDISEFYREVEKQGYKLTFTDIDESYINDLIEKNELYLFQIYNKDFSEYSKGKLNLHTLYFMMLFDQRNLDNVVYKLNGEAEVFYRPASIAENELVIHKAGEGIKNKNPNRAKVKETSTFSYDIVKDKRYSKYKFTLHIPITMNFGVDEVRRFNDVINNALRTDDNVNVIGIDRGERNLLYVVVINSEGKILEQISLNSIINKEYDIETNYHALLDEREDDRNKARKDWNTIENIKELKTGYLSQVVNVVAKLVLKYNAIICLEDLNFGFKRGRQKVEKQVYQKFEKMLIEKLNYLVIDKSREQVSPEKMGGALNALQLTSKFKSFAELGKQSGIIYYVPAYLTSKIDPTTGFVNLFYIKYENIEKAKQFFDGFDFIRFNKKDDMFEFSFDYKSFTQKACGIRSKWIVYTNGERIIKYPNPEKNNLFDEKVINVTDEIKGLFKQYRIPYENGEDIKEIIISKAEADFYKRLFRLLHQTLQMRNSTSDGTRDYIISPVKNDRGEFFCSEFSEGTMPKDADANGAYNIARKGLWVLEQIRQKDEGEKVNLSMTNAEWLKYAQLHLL
In words: cell_activity; PAM TTTC; T7EI. To be noted: tags: HA (2A-eGFP vector). How it is done:
GFP-positive cells were sorted by FACS, lysed with Buffer L+ 1/100V Protease K (Biotool) at 55° C. for 30 min, inactivated at 95° C. for 5 min, and directly used for PCR detection. Appropriate primers were designed near the Cpf1 targeting site, and the amplified product was purified using DNA Clean & Concentrator™-5 kit (ZYMO Research). 200 ng of purified PCR product was added into 1 uL of NEBuffer2 (NEB) and diluted to 10 uL with ddH₂O. Then, heterodimers were formed by re-annealing according to the previously reported method (Li, W., et al., Simultaneous generation and germline transmission of multiple gene mutations in rat using CRISPR-Cas systems. Nat Biotechnol, 2013. 31(8): p. 684-6). The reannealed product was added with 0.3 uL of T7EI endnucelease and 1/10 V NEBuffer2 (NEB), and digested at 37° C. for 1 h 30 min. Genotype analysis was performed by 3% TAE-Gel electrophoresis. Indels were calculated according to the method reported in the previous article (Cong, L., et al., Multiplex genome engineering using CRISPR/Cas systems. Science, 2013. 339(6121): p. 819-23).
The cells were transfected with Cpf1, crRNA31, and crRNA2 plasmids, and it was confirmed by PCR and T7EI analysis that crRNA31 can increase the editing efficiency of five Cpf1s of ArCpf1, BsCpf1, HkCpf1, PrCpf1, and PxCpf1 at the site MeCP2-4 by two folds (FIG. 13B).

B1: crRNA31 MeCP2 site 4 ; Mouse MeCP2 site 4 (ssRNA ; dsDNA)
RNA: AUUUCUACUAUGGUAGAUGUGUCCAACCUUCAGGCAAGGUG
DNA 1: TTTCGTGTCCAACCTTCAGGCAAGGTG
DNA 2: CACCTTGCCTGAAGGTTGGACACGAAA
For B1, the editing efficiency is roughly 2 fold vs crRNA2.
